± gives the uncertainty stated by the source.
Experiment: protein stability index of a GFP-peptide fusion (yeast GPS) (PSI 1-4); higher = more stable; sorted into four equal gates, so the index is relative within each strain
Outline: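 Tiled 17-residue peptides from yeast proteins were fused downstream of GFP on a plasmid that also expresses Cherry, and the pooled library was carried in yeast. Mid-log cultures grown in leucine-free medium were sorted into four equal gates by GFP/Cherry fluorescence ratio. Plasmids from each gate were PCR-amplified and Illumina-sequenced, and reads were assigned to strains by barcodes. Each peptide's protein stability index is the sum, over gates, of the gate's read frequency multiplied by its gate number.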

Sequence | protein stability index (doa10∆) | protein stability index (pdr5∆) | protein stability index (san1∆) | protein stability index (ubr1∆)
LLDVKLAIDNMYILGMC [YCG1] | 1.56 ± 0.086 | 1.51 ± 0.051 | 1.86 ± 0.071 | 2.12 ± 0.05
LLDVVKGTEASNDIIDK [YDL116W/NUP84] | 2.08 ± 0.19 | 2.51 ± 0.14 | 1.92 ± 0.15 | 1.47 ± 0.041
LLHETNDSFKGLITNKM [PRP8] | 3 ± 0.16 | 2.8 ± 0.071 | 3.06 ± 0.12 | 3.24 ± 0.12
LLHNHLKSIESLKLENS [SMC2] | 1.4 ± 0.1 | 1.82 ± 0.11 | 1.24 ± 0.28 | 2.52 ± 0.21
LLIATNLKEYNKFMSIF [SRB8] | 1.64 ± 0.051 | 1.82 ± 0.089 | 2.17 ± 0.2 | 1.94 ± 0.086
LLISDTESNELIQKLQN [IRR1] | 2.79 ± 0.076 | 2.85 ± 0.084 | 2.38 ± 0.073 | 2.9 ± 0.084
LLKYSNETKKRNFLETV [RPL1A] | 3 ± 0.25 | 2.72 ± 0.23 | – | –
LLNKNTGNNLYDRNSNN [SWI1] | 2.79 ± 0.065 | 2.85 ± 0.06 | 2.7 ± 0.064 | 2.9 ± 0.038
LLPLVVSNISCLTGTVA [ECM29] | 1.25 ± 0.041 | 1.38 ± 0.034 | 1.38 ± 0.094 | 1.45 ± 0.037
LLQGGAKVVVTTSRFSK [FAS2] | 2.72 ± 0.077 | 2.43 ± 0.068 | 2.72 ± 0.056 | 2.78 ± 0.047
LLSIKLPGKVNTKEEFA [SNF5] | 2.15 ± 0.17 | 1.82 ± 0.083 | 1.78 ± 0.16 | 2.51 ± 0.23
LLSKKHGQLKLSIQYMI [RPN5] | 1.43 ± 0.046 | 1.96 ± 0.053 | 1.36 ± 0.094 | 1.65 ± 0.053
LLTCYELEKKYHGNECE [SRB8] | 2.71 ± 0.082 | 3 ± 0.061 | 3.3 ± 0.068 | 3.21 ± 0.055
LLVKFIKFFWNNTHVGR [YLR018C/POM34] | 2.97 ± 0.22 | 2.48 ± 0.085 | 2.51 ± 0.085 | 2.66 ± 0.095
LLVVIFKKTLRSRISSP [SRB4] | 1.53 ± 0.085 | 1.66 ± 0.094 | 1.77 ± 0.13 | 1.95 ± 0.11
LMKKACYVGLLTAIPIL [SNU114] | 1.55 ± 0.035 | 1.45 ± 0.036 | 1.53 ± 0.054 | 1.66 ± 0.032
LMNGVKPFKSFLKKNII [FAS1] | – | – | 3.36 ± 0.16 | 3.27 ± 0.087
LMYATDWQMMTSPVTGA [CSL4] | 2.85 ± 0.15 | 3.21 ± 0.2 | – | 2.79 ± 0.28
LNAINNAEKTGKRQVLL [RPS22B] | 3.35 ± 0.066 | 3.24 ± 0.078 | 3.26 ± 0.072 | 3.17 ± 0.05
LNFSTTAPANTTDANGS [MED2] | 2.06 ± 0.061 | 2.08 ± 0.051 | 2.58 ± 0.056 | 2.78 ± 0.057
LNIGLGAVGLKDLTLCR [YCS4] | 2.3 ± 0.079 | 2.41 ± 0.1 | 2.15 ± 0.095 | 2.53 ± 0.056
LNLDEIVACELILSGDT [YJL039C/NUP192] | 2.64 ± 0.08 | 2.7 ± 0.084 | 3.05 ± 0.096 | 2.6 ± 0.12
LNLNNSELQPQNRSLQE [SNF2] | 3.24 ± 0.046 | 3.31 ± 0.057 | 3.31 ± 0.08 | 3.27 ± 0.055
LNPNEYFSVTTARRNVS [SWI3] | 1.64 ± 0.072 | 1.67 ± 0.082 | 1.85 ± 0.14 | 2.19 ± 0.076
LNQIATLKIHLKKFLQE [IRR1] | 2.17 ± 0.18 | 1.91 ± 0.22 | – | –
LNQLDGFETSKNIKIIM [RPT6] | 2.39 ± 0.25 | 2.62 ± 0.22 | 2.74 ± 0.14 | 2.7 ± 0.18

Sequence | protein stability index (doa10∆) | protein stability index (pdr5∆) | protein stability index (san1∆) | protein stability index (ubr1∆)
LNRIKKYLLTQRVFKPV [PRP8] | 2.22 ± 0.075 | 2.25 ± 0.072 | 2.33 ± 0.096 | 2.48 ± 0.069
LPEQLKSGKFCSHCGCV [SNM1] | 2.79 ± 0.084 | 3.11 ± 0.15 | 2.89 ± 0.076 | 2.7 ± 0.071
LPIYDSLMSSQNKLFYI [SIR3] | 2.15 ± 0.14 | 2.01 ± 0.14 | – | 1.38 ± 0.093
LPKIKTVRKSIACVLTV [RPL35A] | 1.98 ± 0.28 | 2.79 ± 0.18 | – | 2.17 ± 0.14
LPKVRYNVEKVKRLMDF [NSL1] | 1.8 ± 0.07 | 2.38 ± 0.065 | 1.96 ± 0.13 | 2.15 ± 0.081
LPLNKPRLEKLINEILL [RGR1] | 2.53 ± 0.051 | 2.33 ± 0.041 | 2 ± 0.077 | 2.48 ± 0.041
LPTTVVSNPGDNPPPAD [MED2] | 3.02 ± 0.046 | 2.95 ± 0.052 | 3.04 ± 0.051 | 3.11 ± 0.037
LPTVGFDFIKDNETPSK [YOR098C/NUP1] | 3.15 ± 0.093 | 3.2 ± 0.056 | 3.08 ± 0.068 | 3.27 ± 0.053
LPVKEFQIIDTLLPGLQ [RPS2] | 2.35 ± 0.15 | 1.83 ± 0.059 | 1.95 ± 0.089 | 1.5 ± 0.063
LPVKHPELFESLGIAQP [RPT6] | 2.65 ± 0.074 | 3.01 ± 0.039 | 2.55 ± 0.077 | 2.73 ± 0.054
LPVNIRRIIQNAQQTFH [RPO21] | 2 ± 0.053 | 2.01 ± 0.05 | 2.64 ± 0.075 | 1.56 ± 0.051
LQIESVTKETVHPRKSY [PRP8] | – | 3.02 ± 0.13 | 2.97 ± 0.054 | 3.11 ± 0.11
LQIGDVVERHLEDGDVV [RPO31] | 3.38 ± 0.088 | 3.43 ± 0.095 | 3.49 ± 0.069 | 3.39 ± 0.098
LQKQILTVENKLQFETD [SMC1] | 2.6 ± 0.069 | 2.37 ± 0.052 | 2.55 ± 0.047 | 2.9 ± 0.046
LQKVENQTIKEAKDAII [YIL149C/MLP2] | 3.05 ± 0.046 | 3.18 ± 0.047 | 3.04 ± 0.045 | 3.13 ± 0.034
LQMYSKIRRHPNIMLIF [FAS1] | 1.72 ± 0.039 | 2.01 ± 0.042 | 1.97 ± 0.08 | 1.91 ± 0.034
LQRDLFIRLPHWPLNWY [RGR1] | 2.05 ± 0.095 | 2.15 ± 0.061 | 2.11 ± 0.082 | 2.11 ± 0.076
LQVSEKDLFELERYYKE [ARP7] | 3.14 ± 0.085 | 3.23 ± 0.077 | 3.48 ± 0.14 | 3.46 ± 0.065
LQWHAMIELICSSATVP [AAR2] | 1.55 ± 0.084 | 1.69 ± 0.073 | 1.59 ± 0.11 | 1.75 ± 0.057
LQYANNAVISHANAAAV [SIN4] | 1.83 ± 0.047 | 1.99 ± 0.041 | 1.91 ± 0.049 | 1.92 ± 0.03
LRDHALSLTAFTKNEEK [ITC1] | 1.42 ± 0.042 | 1.76 ± 0.047 | 1.38 ± 0.076 | 1.86 ± 0.046
LREAPADYWTHAYRDVL [SNF6] | 2.55 ± 0.12 | 2.7 ± 0.1 | 3.42 ± 0.17 | 2.38 ± 0.061
LREEIFIANEGVHTGQF [RPL2A] | 2.8 ± 0.084 | 2.84 ± 0.074 | 2.92 ± 0.06 | 3.03 ± 0.059
LREFRITHNTNITDNLF [GRR1] | 1.32 ± 0.15 | 1.28 ± 0.15 | – | 2.07 ± 0.11
LRIVTHLAICLDIINPG [YDL116W/NUP84] | 1.61 ± 0.08 | 1.38 ± 0.083 | 1.57 ± 0.095 | 1.82 ± 0.067

Source: the supplement of paper PMC9732359
